{"source": "paper PMC12309602", "about": "“NMR-guided identification of CYP11A1–Adrenodoxin interactions that differentially govern cholesterol and vitamin D3 metabolism” (The Journal of Biological Chemistry, 2025)", "binders": {"B1": {"name": "bovine Adrenodoxin M77L (natural protein)", "chain": "SSSEDKITVHFINRDGETLTTKGKIGDSLLDVVVQNNLDIDGFGACEGTLACSTCHLIFEQHIFEKLEAITDEENDLLDLAYGLTDRSRLGCQICLTKAMDNMTVRVPDAVSDARESIDMGMNSSKIE", "modifications": "uniform 15N labelling in the NMR samples"}, "B2": {"name": "bovine Adrenodoxin M77S (natural protein)", "chain": "B1 chain with L77S", "modifications": "uniform 15N labelling in the NMR samples"}, "B3": {"name": "bovine Adrenodoxin, wild type (15N-labeled for NMR) (natural protein)", "chain": "B1 chain with L77M", "modifications": "uniform 15N labelling in the NMR samples", "notes": "Adrenodoxin (Adx), bovine; Carries a 2Fe-2S cluster; also called Adx; WT Adx; source: Ni-NTA, then size exclusion chromatography (Superdex 75)"}}, "key": {"[1]": {"target": "T1, bovine CYP11A1, wild type, mature, residues 41-520 (bovine, UniProt P00189 41-520)", "T1 sequence (looked up)": "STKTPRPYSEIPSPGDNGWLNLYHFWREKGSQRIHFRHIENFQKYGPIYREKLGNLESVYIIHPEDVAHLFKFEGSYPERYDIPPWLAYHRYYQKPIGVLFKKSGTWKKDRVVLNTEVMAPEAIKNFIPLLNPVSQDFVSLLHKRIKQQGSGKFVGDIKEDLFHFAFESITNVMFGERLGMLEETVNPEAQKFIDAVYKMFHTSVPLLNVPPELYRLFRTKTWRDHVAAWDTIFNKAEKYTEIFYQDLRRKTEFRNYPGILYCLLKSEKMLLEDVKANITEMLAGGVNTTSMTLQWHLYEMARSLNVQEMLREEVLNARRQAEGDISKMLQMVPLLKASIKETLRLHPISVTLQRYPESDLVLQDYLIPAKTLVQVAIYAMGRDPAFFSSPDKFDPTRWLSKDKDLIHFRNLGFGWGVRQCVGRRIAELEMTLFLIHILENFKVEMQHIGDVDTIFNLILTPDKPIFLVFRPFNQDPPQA", "test": "cell-based or functional assay"}, "[2]": {"target": "T1, bovine CYP11A1, wild type, mature, …", "test": "NMR titration; 2D 1H,15N-HSQC of 50 uM 15N-Adx with 0.25 to 1.0 equivalents of CYP11A1; 50 mM potassium phosphate, 50 mM NaCl, pH 7.2; peak intensity ratios; some samples with cholesterol or vitamin D3 in 25% HPCD added to the pre-formed complex", "details": "both partners purified"}}, "note": "Where a chain is given by its changes, count along the chain named."}
{"binder": "B1", "values": [{"measurement": "reconstituted CYP11A1 assay, side chain cleavage of cholesterol: pregnenolone produced with Adx M77L compared to WT Adx, at 45 min", "setting": "[1]", "result": "0.6 fold (decrease relative to WT Adx)"}, {"measurement": "reconstituted CYP11A1 assay: vitamin D3 depletion with Adx M77L compared to WT Adx, at 45 min", "setting": "[1]", "result": "0.7 fold (decrease relative to WT Adx)"}]}
{"binder": "B2", "values": [{"measurement": "reconstituted CYP11A1 assay: vitamin D3 metabolism with Adx M77S compared to WT Adx, at 45 min", "setting": "[1]", "result": "~0.3 fold (increase relative to WT Adx)"}]}
{"binder": "B3", "values": [{"measurement": "binding result", "setting": "[2]", "result": "binds"}]}
